Laboratory results: patent US20250269025A1 (AVENCELL THERAPEUTICS, published 2025)
No end group written: not given here.

T1: La epitope 5B9 (SEQ ID No. 28) fused to human Fc domain (human, also: fused to human Fc domain, order, isotype, linker not given here)
T1 construct: Coupled to a CM5 sensor chip; not shown: human Fc domain
T1 chain: KPLPEVTDEY

T2: human CD123-Fc (human, UniProt P26951 19-305, limits assumed)
T2 construct: Coupled to a CM5 sensor chip; also called soluble recombinant CD123; not shown: Fc part
T2 sequence (looked up): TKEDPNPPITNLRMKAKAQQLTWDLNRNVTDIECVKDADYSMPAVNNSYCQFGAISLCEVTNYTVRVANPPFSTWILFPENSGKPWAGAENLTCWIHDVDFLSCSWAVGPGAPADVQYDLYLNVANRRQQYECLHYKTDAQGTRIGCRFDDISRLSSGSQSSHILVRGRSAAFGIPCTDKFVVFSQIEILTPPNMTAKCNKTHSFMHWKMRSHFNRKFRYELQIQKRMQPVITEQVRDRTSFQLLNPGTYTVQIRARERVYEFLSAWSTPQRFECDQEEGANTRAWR

B1: targeting module according to SEQ ID No. 6 (bispecific antibody)
chain: EVQLQQSGPELVKPGASVKMSCKASGYTFTDYYMKWVKQSHGKSLEWIGDIIPSNGATFYNQKFKGKATLTVDRSSSTAYMHLNSLTSEDSAVYYCTRSHLLRASWFAYWGQGTLVTVSAASGGGGSGGGGSGGGGSDFVMTQSPSSLTVTAGEKVTMSCKSSQSLLNSGNQKNYLTWYLQKPGQPPKLLIYWASTRESGVPDRFTGSGSGTDFTLTISSVQAEDLAVYYCQNDYSYPYTFGGGTKLEIKAAARGDIVMTQSPDSLAVSLGERVTMNCKSSQSLLNSRTPKNYLAWYQQKPGQSPKLLIYWASTRKSGVPDRFSGSGSGTDFTLTISSVQAEDVAVYYCKQSYNLLTFGGGTKLEIKGGGGSGGGGSGASAAGGGGSGGGGSQVQLVESGAEVVKPGASVKLSCKASGYAFTHYYIYWIKQAPGQGLEWIGGVNPSNGGTHFNEKFKSRATLTVDTSISTAYMELSRLRSDDTAVYYCTRSEYDYGLGFAYWGQGTLVTVSSGGGGSHHHHHHHH
notes: also called muCD123 + rs5B9-VL-VH
B2: targeting module according to SEQ ID No. 4 (bispecific antibody)
chain: GQVQLVQSGAEVKKPGASVKMSCKASGYTFTDYYMKWVKQAPGQGLEWIGDIIPSNGATFYNQKFQGRATLTVDTSTSTAYMELSSLRSEDTAVYYCTRSHLLRASWFAYWGQGTLVTVSSASGGGGSGGGGSGGGGSDIVMTQSPDSLAVSLGERATINCKSSQSLLNSGNQKNYLTWYLQKPGQPPKLLIYWASTRESGVPDRFSGSGSGTDFTLTISSVQAEDVAVYYCQNDYSYPYTFGGGTKLEIKAAARGDIVMTQSPDSLAVSLGERVTMNCKSSQSLLNSRTPKNYLAWYQQKPGQSPKLLIYWASTRKSGVPDRFSGSGSGTDFTLTISSVQAEDVAVYYCKQSYNLLTFGGGTKLEIKGGGGSGGGGSGASAAGGGGSGGGGSQVQLVESGAEVVKPGASVKLSCKASGYAFTHYYIYWIKQAPGQGLEWIGGVNPSNGGTHFNEKFKSRATLTVDTSISTAYMELSRLRSDDTAVYYCTRSEYDYGLGFAYWGQGTLVTVSSGGGGSHHHHHHHH
notes: also called huCD123_2 + rs5B9-VLVH

Legend:
[1] = molecular target: T1, La epitope 5B9 (SEQ ID No. 28) fused to …; assay: SPR, Biacore X100, La epitope 5B9-human Fc on CM5 chip; KD 5B9 (second number of the cell)
Protocol: Furthermore, binding of different variants of the targeting module according to the invention was analyzed using the La epitope 5B9 (SEQ ID No. 28) fused to human Fc domain which was coupled to a CM5 sensor chip on a Biacore X100 device (FIG. 3). The targeting modules were purified monomers. The targeting modules were concentrated between 2.47 to 200 nM and measured in technical duplicates. For data fitting and KD calculation a two-state-reaction binding model was applied.

[2] = molecular target: T3, CD123 on CD123 positive AML cells (Oci-AML3, Molm-13, MV4-11, primary AML cells) (human, UniProt P26951 19-378); assay: cellular binding assay per table caption, Molm-13 cells
T3 construct: whole, on cells; Endogenous CD123 on human AML cell lines; also called target antigen CD123

[3] = molecular target: T3, CD123 on CD123 positive AML cells …; assay: cellular binding assay per table caption, Oci-AML3 cells
[4] = molecular target: T3, CD123 on CD123 positive AML cells …; assay: flow cytometry on Molm-13 cells, anti-His-PE detection. Half-maximal binding from a four-parameter fit of gMFI. Unit taken from the concentration axis [M]
Protocol: Cellular binding of CD123-binding targeting modules (TM) was tested on CD123 positive target cell lines Oci-AML3 and Molm-13: A) SEQ ID No. 5 to Oci-AML3, B) SEQ ID No. 9 to Oci-AML3, C) SEQ ID No. 4 to Molm-13 and D) SEQ ID No. 6 to Molm-13. The affinity of TMs was analyzed by flow cytometry. The TMs were titrated on an AML cell lines and then detected by a mouse anti-His-tag antibody conjugated to phycoerythrin.
Different concentrations of R-TM123 were incubated with cells, washed and quantified. A dose-response curve was obtained when the geometric mean fluorescence (MFI) was plotted against the TM concentration.

human CD123-Fc = molecular target: T2, human CD123-Fc; assay: SPR, Biacore X100, human CD123-Fc on CM5 chip, 1:1 model; KD CD123 (first number of the cell)
Protocol: Binding of different variants of the targeting module according to the invention was analyzed by SPR measurements using human CD123-Fc coupled to a CM5 sensor chip on a Biacore X100 device (FIG. 2). Targeting modules were purified monomer except for the targeting module according to SEQ ID No. 8. […] For data fitting and KD calculation a 1:1 binding model was applied.

| Kd [1] | EC50 [2] | EC50 [3] | Kd [4] | Kd (human CD123-Fc) | Binder |
| --- | --- | --- | --- | --- | --- |
| 2.1 nM | 0.0017 nM | 0.0062 nM | 7.69 nM | 0.044 nM | B1 |
| 3.4 nM | 0.0071 nM | 0.026 nM |  | 5.2 nM | B2 |
